Assay [1] deals with human IL-18 binding protein (human) (UniProt O95998). Briefly: IGEN electrochemiluminescence immunoassay of the IL-18:IL-18BP complex; 125 ng/ml of each.
Assay [2] has the same target. Briefly: SPR (BIAcore). (In general: In SPR one partner is held on a chip, and binding of the other changes the refractive index at the surface.)
For assay [3] the target is unchanged. The experiment in a line: IGEN electrochemiluminescence immunoassay of the IL-18:IL-18BP complex (ruthenium 16D10 anti-IL-18 mAb, biotinylated mAb 36 anti-IL-18BP); 125 ng/ml of each.

native human IL-18 (SEQ ID NO:1), sequence (Q14116 37-193): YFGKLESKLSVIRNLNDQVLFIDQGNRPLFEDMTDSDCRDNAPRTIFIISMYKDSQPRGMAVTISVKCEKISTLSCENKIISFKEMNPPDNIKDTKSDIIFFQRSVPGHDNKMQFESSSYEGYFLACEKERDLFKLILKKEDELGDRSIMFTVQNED

On to “C144 20K PEG (human IL-18 L144C substitution mutant pegylated at C144 with 20K PEG, Table 7) (ligand)”, for which, in assay [1], the ECL units came to 154000 ECL units. “C144 non-PEG (human IL-18 substitution mutant with L144C, Table 7) (ligand)” gave an ECL units in assay [1] of 561000 ECL units. Turning to “C157 20K PEG (human IL-18 D157C substitution mutant pegylated at C157 with 20K PEG, Table 7) (ligand)”, the ECL units in assay [1] came out at 63500 ECL units. Turning to “C157 non-PEG (human IL-18 substitution mutant with D157C, Table 7) (ligand)”, the ECL units in assay [1] was 377000 ECL units. Consider “human IL-18 C38S (SEQ ID NO:4) (from UniProt Q14116 37-193) (ligand)”, for which, in assay [1], the ECL units was determined as 746000 ECL units.

On to “human IL-18 C38S (SEQ ID NO:4) monopegylated at C68 with 20K PEG (from UniProt Q14116 37-193) (ligand)”, for which the ECL units in assay [1] amounted to 49100 ECL units. Broadly, the Kd is the constant that tells how readily two partners part at equilibrium. A higher Kd goes with a looser complex. In assay [2], “human IL-18 C38S, C68D, D157C (SEQ ID NO:8) (from UniProt Q14116 37-192) (ligand)” registered a Kd of 0.134 nM. Still for that read-out and setting: then “human IL-18 C38S, C68D, D157C (SEQ ID NO:8) monopegylated at C157 with 20K PEG (from UniProt Q14116 37-192) (ligand)”, with 5.53 nM; and “human IL-18 C38S, C68D, D157C (SEQ ID NO:8) monopegylated at C157 with 30K PEG (from UniProt Q14116 37-192) (ligand)”, with 4.91 nM.

Turning to “human IL-18 C38S, C68D, D157C (SEQ ID NO:8) monopegylated at C157 with 40K PEG (from UniProt Q14116 37-192) (ligand)”, the Kd in assay [2] was 23.6 nM. Take “human IL-18 C38S, C68D, L144C (SEQ ID NO:7) (from UniProt Q14116 37-193) (ligand)”: in assay [2], the Kd is 0.101 nM. Turning to “human IL-18 C38S, C68D, L144C (SEQ ID NO:7) monopegylated at C144 with 20K PEG (from UniProt Q14116 37-193) (ligand)”, the Kd in assay [2] was 1.16 nM. As to “human IL-18 C38S, C68D, L144C (SEQ ID NO:7) monopegylated at C144 with 30K PEG (from UniProt Q14116 37-193) (ligand)”, the Kd in assay [2] came to 1.51 nM. This Kd and that of the substance before are within 1.5-fold of each other. “human IL-18 C38S, C68D, L144C (SEQ ID NO:7) monopegylated at C144 with 40K PEG (from UniProt Q14116 37-193) (ligand)”: the Kd in assay [2] turned out to be 4.71 nM. In turn, “human IL-18 C38S, C68S, D157C (SEQ ID NO:10) (from UniProt Q14116 37-192) (ligand)” gave a dissociation constant Kd in assay [2] of 0.163 nM. On the same count and under the same terms, to “human IL-18 C38S, C68S, D157C (SEQ ID NO:10) monopegylated at C157 with 20K PEG (from UniProt Q14116 37-192) (ligand)” belongs 1.27 nM. In assay [2], “human IL-18 C38S, C68S, D157C (SEQ ID NO:10) monopegylated at C157 with 30K PEG (from UniProt Q14116 37-192) (ligand)” showed a Kd of 1.29 nM. For “human IL-18 C38S, C68S, L144C (SEQ ID NO:9) (from UniProt Q14116 37-193) (ligand)”, in assay [2], the Kd amounted to 0.156 nM.

With “human IL-18 C38S, C68S, L144C (SEQ ID NO:9) monopegylated at C144 with 20K PEG (from UniProt Q14116 37-193) (ligand)”, in assay [2], the Kd was found to be 1.56 nM. Regarding “human IL-18 C38S, C68S, L144C (SEQ ID NO:9) monopegylated at C144 with 30K PEG (from UniProt Q14116 37-193) (ligand)”, the Kd in assay [2] is 1.51 nM.

Turning to “native human IL-18 (SEQ ID NO:1) (from UniProt Q14116 37-193) (ligand)”, in assay [2], the Kd was 0.135 nM. The ECL units in assay [3] turned out to be 1.1e+06 ECL units.

Source of the values: patent US20050008615A1.
